Assay [1] concerns the target NCenH3^CenpA-lacI (human).
Assay [2] has as its target NCenH3^Cse4-lacI (Saccharomyces cerevisiae).

Take BubR1 (natural protein): the silencing of the white-reporter (eye pigmentation) in S9.2 flies on tethering of the lacI fusion: share of lines with significant silencing in assay [1] was 50 % of lines. Besides, in assay [2], the silencing of the white-reporter (eye pigmentation) in S9.2 flies on tethering of the lacI fusion: share of lines with strong silencing was 75 % of lines.

These data come from publication PMC2966416.
